In IntAct's records for PubMed 24937458:

B1: Lysine-specific demethylase 5B (Homo sapiens), Q9UGL1 (parent)
chain: MEAATTLHPGPRPALPLGGPGPLGEFLPPPECPVFEPSWEEFADPFAFIHKIRPIAEQTGICKVRPPPDWQPPFACDVDKLHFTPRIQRLNELEAQTRVKLNFLDQIAKYWELQGSTLKIPHVERKILDLFQLNKLVAEEGGFAVVCKDRKWTKIATKMGFAPGKAVGSHIRGHYERILNPYNLFLSGDSLRCLQKPNLTTDTKDKEYKPHDIPQRQSVQPSETCPPARRAKRMRAEAMNIKIEPEETTEARTHNLRRRMGCPTPKCENEKEMKSSIKQEPIERKDYIVENEKEKPKSRSKKATNAVDLYVCLLCGSGNDEDRLLLCDGCDDSYHTFCLIPPLHDVPKGDWRCPKCLAQECSKPQEAFGFEQAARDYTLRTFGEMADAFKSDYFNMPVHMVPTELVEKEFWRLVSTIEEDVTVEYGADIASKEFGSGFPVRDGKIKLSPEEEEYLDSGWNLNNMPVMEQSVLAHITADICGMKLPWLYVGMCFSSFCWHIEDHWSYSINYLHWGEPKTWYGVPGYAAEQLENVMKKLAPELFVSQPDLLHQLVTIMNPNTLMTHEVPVYRTNQCAGEFVITFPRAYHSGFNQGFNFAEAVNFCTVDWLPLGRQCVEHYRLLHRYCVFSHDEMICKMASKADVLDVVVASTVQKDMAIMIEDEKALRETVRKLGVIDSERMDFELLPDDERQCVKCKTTCFMSAISCSCKPGLLVCLHHVKELCSCPPYKYKLRYRYTLDDLYPMMNALKLRAESYNEWALNVNEALEAKINKKKSLVSFKALIEESEMKKFPDNDLLRHLRLVTQDAEKCASVAQQLLNGKRQTRYRSGGGKSQNQLTVNELRQFVTQLYALPCVLSQTPLLKDLLNRVEDFQQHSQKLLSEETPSAAELQDLLDVSFEFDVELPQLAEMRIRLEQARWLEEVQQACLDPSSLTLDDMRRLIDLGVGLAPYSAVEKAMARLQELLTVSEHWDDKAKSLLKARPRHSLNSLATAVKEIEEIPAYLPNGAALKDSVQRARDWLQDVEGLQAGGRVPVLDTLIELVTRGRSIPVHLNSLPRLETLVAEVQAWKECAVNTFLTENSPYSLLEVLCPRCDIGLLGLKRKQRKLKEPLPNGKKKSTKLESLSDLERALTESKETASAMATLGEARLREMEALQSLRLANEGKLLSPLQDVDIKICLCQKAPAAPMIQCELCRDAFHTSCVAVPSISQGLRIWLCPHCRRSEKPPLEKILPLLASLQRIRVRLPEGDALRYMIERTVNWQHRAQQLLSSGNLKFVQDRVGSGLLYSRWQASAGQVSDTNKVSQPPGTTSFSLPDDWDNRTSYLHSPFSTGRSCIPLHGVSPEVNELLMEAQLLQVSLPEIQELYQTLLAKPSPAQQTDRSSPVRPSSEKNDCCRGKRDGINSLERKLKRRLEREGLSSERWERVKKMRTPKKKKIKLSHPKDMNNFKLERERSYELVRSAETHSLPSDTSYSEQEDSEDEDAICPAVSCLQPEGDEVDWVQCDGSCNQWFHQVCVGVSPEMAEKEDYICVRCTVKDAPSRK
partner: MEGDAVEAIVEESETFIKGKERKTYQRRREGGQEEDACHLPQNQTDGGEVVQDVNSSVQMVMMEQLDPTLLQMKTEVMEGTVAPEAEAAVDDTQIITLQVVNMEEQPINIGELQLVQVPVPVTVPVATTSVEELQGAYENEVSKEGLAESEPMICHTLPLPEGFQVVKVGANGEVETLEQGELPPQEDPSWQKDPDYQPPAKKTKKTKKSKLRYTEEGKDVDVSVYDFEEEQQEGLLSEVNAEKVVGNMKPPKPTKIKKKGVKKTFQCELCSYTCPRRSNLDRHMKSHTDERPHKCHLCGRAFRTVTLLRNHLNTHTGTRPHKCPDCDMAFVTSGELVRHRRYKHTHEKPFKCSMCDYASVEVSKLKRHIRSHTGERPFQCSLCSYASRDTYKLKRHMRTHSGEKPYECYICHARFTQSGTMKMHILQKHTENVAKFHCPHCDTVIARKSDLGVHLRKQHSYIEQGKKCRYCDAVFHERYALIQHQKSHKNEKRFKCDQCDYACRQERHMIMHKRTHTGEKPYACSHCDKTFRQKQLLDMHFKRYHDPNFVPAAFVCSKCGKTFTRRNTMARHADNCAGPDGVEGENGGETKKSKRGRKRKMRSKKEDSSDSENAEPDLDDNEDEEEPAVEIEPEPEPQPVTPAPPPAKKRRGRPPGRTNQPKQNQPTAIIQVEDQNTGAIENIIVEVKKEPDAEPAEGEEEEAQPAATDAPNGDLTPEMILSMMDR

Variants of: B1
Conditions: with ctcf_human CTCF

Row | Variant | effect of a mutation on the interaction
1 | K1435R | decreasing interaction strength
